From patent US20030162712A1

Target: naturally occurring Tek as expressed on human endothelial cells (human) (UniProt Q02763)
Assay: flow cytometry on HMVEC-d, mAb 5 µg/ml, competitor human Ang2 10 µg/ml; negative control antibody

UniProt Q02763, sequence (Q02763 23-1124): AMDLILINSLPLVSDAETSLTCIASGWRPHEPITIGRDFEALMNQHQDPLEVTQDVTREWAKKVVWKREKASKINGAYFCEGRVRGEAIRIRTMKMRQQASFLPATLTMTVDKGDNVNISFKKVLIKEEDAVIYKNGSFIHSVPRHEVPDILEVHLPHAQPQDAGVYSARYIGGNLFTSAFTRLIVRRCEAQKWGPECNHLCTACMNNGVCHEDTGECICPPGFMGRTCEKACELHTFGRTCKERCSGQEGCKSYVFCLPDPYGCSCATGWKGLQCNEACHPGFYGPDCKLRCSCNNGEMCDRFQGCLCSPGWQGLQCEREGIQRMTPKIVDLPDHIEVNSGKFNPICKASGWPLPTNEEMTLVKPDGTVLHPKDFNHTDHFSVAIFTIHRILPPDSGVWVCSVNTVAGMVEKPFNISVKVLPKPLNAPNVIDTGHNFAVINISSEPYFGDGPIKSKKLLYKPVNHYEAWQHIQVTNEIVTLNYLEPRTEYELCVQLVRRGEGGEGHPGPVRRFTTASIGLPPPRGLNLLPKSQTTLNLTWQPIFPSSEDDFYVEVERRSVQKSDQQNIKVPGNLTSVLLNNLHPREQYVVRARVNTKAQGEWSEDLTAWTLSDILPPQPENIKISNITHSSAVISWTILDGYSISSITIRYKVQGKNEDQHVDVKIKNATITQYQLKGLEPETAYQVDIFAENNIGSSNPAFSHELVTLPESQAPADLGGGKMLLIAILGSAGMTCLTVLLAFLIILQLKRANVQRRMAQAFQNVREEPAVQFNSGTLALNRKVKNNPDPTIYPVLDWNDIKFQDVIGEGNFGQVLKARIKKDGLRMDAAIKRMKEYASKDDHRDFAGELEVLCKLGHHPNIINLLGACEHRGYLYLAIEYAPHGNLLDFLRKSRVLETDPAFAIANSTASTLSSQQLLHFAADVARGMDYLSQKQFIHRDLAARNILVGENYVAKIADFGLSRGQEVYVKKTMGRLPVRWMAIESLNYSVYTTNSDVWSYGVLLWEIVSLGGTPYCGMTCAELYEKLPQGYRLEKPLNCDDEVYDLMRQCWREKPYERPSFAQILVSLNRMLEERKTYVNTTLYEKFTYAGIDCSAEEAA

- Percent Inhibition of Antibody Binding by Ang2: 0%
Substance: IgG1 negative control mAb (MOPC21) (antibody)
